The source of these data is the supplement of paper PMC10567573.

The labels stand for the following.
B1: RHOBTB2 (parent)
chain: HHHHGRDFLLRAASFDVCESVDEA
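Further: lentivirally expressed fusions sorted by FACS into six bins by GFP to DsRed ratio, PSI derived from sequencing read proportions per bin multiplied by bin number.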

In this data set the parent is B1. The data set is described as follows: protein stability index of a GFP-peptide fusion (GPS, HEK-293T) (PSI 1-6); higher = more stable. The settings on record: c terminus: a fixed tail appended.
For HHHHGRDFLLRMASFDVCESVDEA [A12M], the protein stability index came to 2.96.
For HHHHGRDFLLRTASFDVCESVDEA [A12T] the value was 1.66; for HHHHGRDFLLRKASFDVCESVDEA [A12K], 4.26; for HHHHGRDFLLRCASFDVCESVDEA [A12C], 2.4.
Then HHHHGRDFLLRLASFDVCESVDEA [A12L], with 3.14.
Then HHHHGRDFLLRIASFDVCESVDEA [A12I], with 2.54.
With HHHHGRDFLLRGASFDVCESVDEA [A12G], the protein stability index was 4.25.
For HHHHGRDFLLRWASFDVCESVDEA [A12W] the value was 2.67; for HHHHGRDFLLRFASFDVCESVDEA [A12F], 1.92; for HHHHGRDFLLRYASFDVCESVDEA [A12Y], 2.08.
Then HHHHGRDFLLREASFDVCESVDEA [A12E], with 5.13.
Then HHHHGRDFLLRSASFDVCESVDEA [A12S], with 3.29.
As to HHHHGRDFLLRNASFDVCESVDEA [A12N], the protein stability index turned out to be 3.82.
Then HHHHGRDFLLRPASFDVCESVDEA [A12P], with 4.52.
For HHHHGRDFLLRRASFDVCESVDEA [A12R], the protein stability index stood at 4.37.
Then HHHHGRDFLLRDASFDVCESVDEA [A12D], with 4.55; and HHHHGRDFLLRQASFDVCESVDEA [A12Q], with 3.73; and HHHHGRDFLLRHASFDVCESVDEA [A12H], with 2.94.
With HHHHGRDFLLRVASFDVCESVDEA [A12V], the protein stability index worked out at 3.03.
Then HHHHGRDFLLRAASFDTCESVDEA [V17T], with 3.53.
As to HHHHGRDFLLRAASFDNCESVDEA [V17N], the protein stability index is 4.
For HHHHGRDFLLRAASFDDCESVDEA [V17D] the value was 4.54; for HHHHGRDFLLRAASFDPCESVDEA [V17P], 4.7.
For HHHHGRDFLLRAASFDMCESVDEA [V17M] the value was 3.68; for HHHHGRDFLLRAASFDGCESVDEA [V17G], 3.99; for HHHHGRDFLLRAASFDLCESVDEA [V17L], 3.2.
Then HHHHGRDFLLRAASFDSCESVDEA [V17S], with 4.11; and HHHHGRDFLLRAASFDKCESVDEA [V17K], with 3.94.
As to HHHHGRDFLLRAASFDYCESVDEA [V17Y], the protein stability index was determined as 4.16.
Then HHHHGRDFLLRAASFDCCESVDEA [V17C], with 4.17; and HHHHGRDFLLRAASFDWCESVDEA [V17W], with 3; and HHHHGRDFLLRAASFDECESVDEA [V17E], with 4.56.
With HHHHGRDFLLRAASFDACESVDEA [V17A], the protein stability index amounted to 4.04.
Then HHHHGRDFLLRAASFDICESVDEA [V17I], with 3.37.
Then HHHHGRDFLLRAASFDHCESVDEA [V17H], with 3.55; and HHHHGRDFLLRAASFDRCESVDEA [V17R], with 3.52; and HHHHGRDFLLRAASFDFCESVDEA [V17F], with 3.12.
Then HHHHGRDFLLRAASFDQCESVDEA [V17Q], with 4.24.
As for HHHHGRDFLLRAASVDVCESVDEA [F15V], the protein stability index came to 4.33.
Then HHHHGRDFLLRAASLDVCESVDEA [F15L], with 3.24; and HHHHGRDFLLRAASYDVCESVDEA [F15Y], with 3.92.
For HHHHGRDFLLRAASKDVCESVDEA [F15K] the value was 4.58; for HHHHGRDFLLRAASRDVCESVDEA [F15R], 4.88.
Then HHHHGRDFLLRAASTDVCESVDEA [F15T], with 4.74.
HHHHGRDFLLRAASMDVCESVDEA [F15M]: the protein stability index turned out to be 4.74.
As to HHHHGRDFLLRAASSDVCESVDEA [F15S], the protein stability index came out at 4.76.
Then HHHHGRDFLLRAASPDVCESVDEA [F15P], with 4.37.
For HHHHGRDFLLRAASNDVCESVDEA [F15N] the value was 4.35; for HHHHGRDFLLRAASHDVCESVDEA [F15H], 4.11.
Then HHHHGRDFLLRAASGDVCESVDEA [F15G], with 4.38; and HHHHGRDFLLRAASCDVCESVDEA [F15C], with 4.57.
Take HHHHGRDFLLRAASIDVCESVDEA [F15I]: the protein stability index came out at 3.94.
For HHHHGRDFLLRAASADVCESVDEA [F15A] the value was 4.78; for HHHHGRDFLLRAASWDVCESVDEA [F15W], 3.94; for HHHHGRDFLLRAASQDVCESVDEA [F15Q], 4.1.
Then HHHHGRDFLLRAASEDVCESVDEA [F15E], with 4.86; and HHHHGRDFLLRAASDDVCESVDEA [F15D], with 5.01; and HHHHGRDFLLRAATFDVCESVDEA [S14T], with 3.47.
HHHHGRDFLLRAALFDVCESVDEA [S14L]: the protein stability index is 2.88.
Then HHHHGRDFLLRAACFDVCESVDEA [S14C], with 3.36; and HHHHGRDFLLRAAVFDVCESVDEA [S14V], with 2.84; and HHHHGRDFLLRAAPFDVCESVDEA [S14P], with 4.22.
As for HHHHGRDFLLRAAIFDVCESVDEA [S14I], the protein stability index was determined as 2.73.
Consider HHHHGRDFLLRAAKFDVCESVDEA [S14K], for which the protein stability index worked out at 3.17.
Then HHHHGRDFLLRAAQFDVCESVDEA [S14Q], with 4.17.
For the variant HHHHGRDFLLRAAFFDVCESVDEA [S14F], the protein stability index is 3.03.
Consider HHHHGRDFLLRAAYFDVCESVDEA [S14Y], for which the protein stability index was determined as 2.79.
For the variant HHHHGRDFLLRAAGFDVCESVDEA [S14G], the protein stability index was found to be 3.15.
For HHHHGRDFLLRAAHFDVCESVDEA [S14H] the value was 3.57.
Then HHHHGRDFLLRAANFDVCESVDEA [S14N], with 4.5; and HHHHGRDFLLRAAMFDVCESVDEA [S14M], with 3.05; and HHHHGRDFLLRAARFDVCESVDEA [S14R], with 2.62.
Then HHHHGRDFLLRAADFDVCESVDEA [S14D], with 4.13; and HHHHGRDFLLRAAWFDVCESVDEA [S14W], with 2.66.
As for HHHHGRDFLLRAAEFDVCESVDEA [S14E], the protein stability index was determined as 3.89.
For HHHHGRDFLLRAAAFDVCESVDEA [S14A] the value was 3.55; for HHHHGRDFLLRAASFLVCESVDEA [D16L], 2.11.
Then HHHHGRDFLLRAASFHVCESVDEA [D16H], with 2.84.
For HHHHGRDFLLRAASFIVCESVDEA [D16I] the value was 2.14.
Consider HHHHGRDFLLRAASFMVCESVDEA [D16M], for which the protein stability index worked out at 2.44.
Then HHHHGRDFLLRAASFKVCESVDEA [D16K], with 2.79.
Then HHHHGRDFLLRAASFCVCESVDEA [D16C], with 1.97.
Then HHHHGRDFLLRAASFFVCESVDEA [D16F], with 1.89.
For HHHHGRDFLLRAASFEVCESVDEA [D16E], the protein stability index stood at 3.74.
Turning to HHHHGRDFLLRAASFYVCESVDEA [D16Y], the protein stability index came out at 1.67.
Then HHHHGRDFLLRAASFQVCESVDEA [D16Q], with 3.5; and HHHHGRDFLLRAASFPVCESVDEA [D16P], with 3.19; and HHHHGRDFLLRAASFSVCESVDEA [D16S], with 3.17.
For HHHHGRDFLLRAASFRVCESVDEA [D16R] the value was 2.48.
Turning to HHHHGRDFLLRAASFVVCESVDEA [D16V], the protein stability index worked out at 2.33.
As to HHHHGRDFLLRAASFGVCESVDEA [D16G], the protein stability index worked out at 3.06.
For HHHHGRDFLLRAASFNVCESVDEA [D16N] the value was 3.31; for HHHHGRDFLLRAASFAVCESVDEA [D16A], 3.37.
Then HHHHGRDFLLRAASFTVCESVDEA [D16T], with 3.36.
